Test results taken from the nanobody polyreactivity screen of Harvey et al. (2022).

Experiment: yeast display, Sf9 membrane polyspecificity reagent, FACS + sequencing; frameworks hold sequencing errors
Procedure, shortened: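 A synthetic nanobody library was expressed on Saccharomyces cerevisiae BJ5465 by galactose induction for 36–48 hours. The library was stained for 1 hour at 4 °C with 10% biotinylated, detergent-solubilized Sf9 membrane reagent and enriched with streptavidin microbeads before FACS. Low and high (top ~1%) gates were set on anti-HA fluorescence for expression and streptavidin fluorescence for reagent binding, and each polyreactivity label reflects the gate of origin.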

| Sequence | polyreactivity (PSR sort gate) |
| --- | --- |
| QVQLEESGGGLVQAGGSLRLSCPASGSIFSWNAMGWYRQSPGKERELVATITWNGGRTYYADSVKGRFTISRDNAKNTVYLQMKSLKPEDTAVYYCAARYYVYWTYPNRVLSYYYWGQRTQVTVSS | high polyreactivity |
| QVQLEESGGGLVQAGGSLRLSFAASISSINAMGWYRQAPGKESELVAAIRCSGSSTYYADSVKGRFTISRDNAMITFYLQMNSVKPEDTAVYYCAADTSTGDRGFDYWGHGTQVTVSS | high polyreactivity |
| QVQLEESGGGLVQAGGSLRLSGAASGRTSDGYAMGWYRQAPGKERELVAGITEGGGDTYYADSVKGRFTMSRDTAKNTVYLQMNSLKPEDPALYYCNAVEGSRLPYDYGGQGTQVTVSS | low polyreactivity |
| QVQLEESGGGLVQAGGSLRLSSAASGTISATYAMGWYRQAPGKERELVAAISRNGGSTYYADSVKGRFTISRDNAKNTVYLQMNSLKPEDTAVYYCATSSSKSMYWGQGTQVTVSS | high polyreactivity |
| QVQLEESGGGLVQAGGSLRLTCAACGSIFGPNAMGWYRQAPGKERELVAAIDSSDGSTYYADSVKGRFTISRDNAKNSVYLQMNSLKPEDTAVYYCADELGYIYYSYWWQYDYWGQGTQVTVSS | high polyreactivity |
| QVQLEESGGGLVQAGGSLRLTCAASGFIFDDNAMGWYRQAPGKERELVAAISQGAGRTYYADSVKGRFTISRDNAKNTVYLQMNSLKPEDTAVYYCNSGRPKYWYGSKYDYWGQGTQVTVSS | low polyreactivity |
| QVQLEESGGGLVQAGGSLRLTCAASGSILVYNAMGWYRQAPGKERELVAGISSSGTRTYYADSVKGRFTISRDNAKITFYLQMNSLKPEDTAVYYCNALPVRGHQEYDSWGQGTQVNVSS | high polyreactivity |
| QVQLEESGGGLVQAGGSLSLSCAASGSIFSNYAMGWYRQAPGKERELVAAIRISGGSTKYADSVKGRFTISRDNAKNTVYLQMNSLKPEDTAVYYCAAANSKRHRRYNYWGQGTQVTVSS | high polyreactivity |
| QVQLEESGGGLVQAGGSLSVSCAASGSICRNYAMGWYLQAPGKERELVAAISVRGGSTYYADSVKGRFTISRDNAKNTVYLQMHSLKPEDTAGYYCNAVHHDTISDYWGQGTQVTVSS | high polyreactivity |
| QVQLEESGGGLVQAGGTLRLSCAASGGIIVSYAMGWYRPAPRKERELVAAITSGGGTSYADSVKGRFTISRDNAKNTVYLQLNSLKPEDTAVYYCNADGYLAERFVIRLVEFRDYDYWGQGTQVTVSS | low polyreactivity |
| QVQLEESGGGLVQAGGTLRLSCAASVGIFNYYTMGWYREAPGKERELVAAITRGGSTYYADSVKGRFTISRDNAKNTVYLQMNSLKPEDTAVYYCAAVWRRYDKSPLEGSWGQGTQVTLSS | high polyreactivity |
| QVQLEESGGGLVQAGRSLRLSCAASGRIFTYYSMGWYRQAPWKERELVAAISRSGRTYYADSVKGRFTISRDNAKNTVYLQMNILIPEDTAVYYCAAEYYYSWFEYWGQGTQVTVSS | high polyreactivity |
| QVQLEESGGGLVQAGVSLRLSCAASGFTFDRYAMGSYRQAPAKEREMVAALSRSGTSTYYADSVKGRFTISRDNAKYTVYLQMNSLKPEDNAVYYCATRYTVYFPSRLSQYDYWGQGTQVTVSS | high polyreactivity |
| QVQLEESGGGLVQAGVSLRLSCAASGSTFGYYAMGWSRQAPGKERELVAAITSGGTTNYADYVKGRFTISRYNEKNTVYLQMYSLKPEDTAVYYCNAVGTFVRYWTDGRDGVTYDFWGQGTQVTVSS | low polyreactivity |
| QVQLEESGGGLVQEGGSLRLSCSASGRTFRYAMGWYRQAPGKERELVAAISWRGGSTFYADSVKGRFTISRDNAKNTVYLQMNSLKPEDTAVYYCATEFRYHYLSTWSWRYYYWGQGTQVTVSS | low polyreactivity |
| QVQLEESGGGLVQPGGSLRLSCAASGTTIGHNAMGLYREAPGKERELVAAISNSGTRTYYADSVKGRFTISRDNAKNTVYLQMNILKPEDTAVYDCAARYYHIYTKYLQGSDYWGQGTQVTVSS | high polyreactivity |
| QVQLEESGGGLVQSGGSLRLSCAASGRTFSGYAMGSYRQAPGKERELVSAISFSGGSTYYADSVKGRFTISRDNAMNTVYLQMNSLIPEDTAVYYCNAYSWYNGIGNYDYWGQGTQVTVSS | low polyreactivity |
| QVQLEESGGGVVQAGGSLRLSCAASGRTFRWYAMGWYRQAPGKERELVATINSGGTTNYADSVKGRFTISRDNAKNTVYLQMNSLKPEDTAVYYCAATNRGPGHDYWGQGTQVTVSS | low polyreactivity |
| QVQLEESGGGVVQAGGSLRLSCAASGSTFLQYAMGWYRQATGKERELVAAISWRAGSTYYADSVKGRFTISRDTAQNTVYLQMNSLKPEDTAVYYCAADRNGWRYELDDYDYWGQGTQVTVSS | low polyreactivity |
| QVQLEESGGRLVQAGGSLRLSCAASGRILRRYTMGWYRQAPGKETELVAAISSGGNTYYADSVKGRFTISRDNAKNTVYLQMNSLKPEDTAVDYCAARVRRYWEYDYWGQGTQVTVSS | low polyreactivity |
| QVQLEESGGRLVQAGGSLRLTSAASGGIFSVYAMGWYRQAPGKERQLVASITVSGGSTSYADSVKGRFTISRDNAKNTVYLQMKSLKPEDTAVYYCAVYQYVGYTMDYWGQGTKVTVSS | low polyreactivity |
| QVQLEESGRGLVQAGGSLRISCAASGRTYTYYALGWYRQAPGKERELVAAISQSGGSTYYADSVKGRFTISRDNAKNTVYLQMNSLKPEDTAVYYCASVWRTRWAPGYYWGQGTQVTVSS | high polyreactivity |

| Sequence | polyreactivity (PSR sort gate) |
| --- | --- |
| QVQLEESGVGLVQAGGSLRLSCAASGSIFPAYAMGSYRQAPGKERELLAAITFSGGRTYYADSVKGRLTISRDNAKNTFYLQMNSLKPEDTAVYYCAAYGAPSGTGAKYGYWGQGTQVTVSS | low polyreactivity |
| QVQLEESGVGVVLAGGSRSLSCAASGRIFQYNAMGWNRQAPGKERELVAAISYRGGSTYYADSVKGRFTISRDNAKYTVYLQLNSLKPEDTAVYYCAVEYPVYYYVEYDYWGQGTQVTVSS | high polyreactivity |
| QVQLEESRGGLVQAGGSLRLSCAASGSIFGYNTMGWYRQAPRKERELVAAISKSGGSTYYADSEKGRFTLSRDTEKNTVYLQMNSLKLEDTAVYYCATYAKQLSPYYYWGQGIQVTVSS | high polyreactivity |
| QVQLEESRGGLVQAGGSLRLSCAASGSTFVINDMGWYRQAPGKETELVAAISKSGGRTYYADSVKGRFTISRDNATNTVYLQMNSLKPEDTAVYYCAAVSQRTRYGYWGQGTQVTVSS | high polyreactivity |
| QVQLEESRGGLVQAGGSLRLSSADSGSTFDYYAKGWYRQAPGKERELVAAITSTGRTYYADSVKGRFTISRDNAKNTVYLQMNSLKPEDTAVYYCAADLPWGPLFDYWGQGTQVTVSS | low polyreactivity |
| QVQLEESRRGLVQARGSLRLSCASSGYIFLYYALGCYRQAPGKERELVAAITTRGGRTYYADSVKGRFTISRDNAKNTVYVQMNSLKPEDTAVYYCAVEVSWSYYSYGYWGQGTQVTVSS | low polyreactivity |
| QVQLEESVGGLVQAGGSLRLSCAASGSISYKYLMGWYRQAPGKEREFVASMTRIGGSTYYADSVKGRFTISRDNAKNTVYLQMNSLNAEDTAVYYCAADYAIGRLRRGDDYWGQGTQVTVSS | low polyreactivity |
| QVQLEESVGGLVQAGGSLRLSCAASGSTFVYYGMGWYRQAPGKERELVAAITDIGDSTNYADSVKGRFTISRDNAKNTVYLQMNSLKPDDTAVYYCAASGRSVPYYGSPRNDYWGQGTQVTVSS | low polyreactivity |
| QVQLEESVGGLVQEGGSLRLTCAASGRIFGNTMGWYRQAPWKEMELVAAITRSGVSTYYADSVKGRFTSSRDNAKNTVYLQMNSLKPEDTAVYYCADASSYYRGHYDYWGQGTQVTVSS | high polyreactivity |
| QVQLEETRGCLVQAGGSLRLSCAASGIILYAYAMGWYRQAPRKERELVAAITRRGGRTYYADSVKGRFTISRDNAKYTVYLQMNSLKPVDTAVYYGATVQSGRVRTYDYWGQGTLVTVSS | high polyreactivity |
| QVQLEEYGGGLVQAGGSLRLSCAAAGFTCGGYAMGWYRQAPGKDRELVATITRVGSTNYADSVKGRFTISRDNAKNTVYLQMNSLKPEDTAVYYCNTRRVYGHGNAPYDSWGQATQVTVSS | low polyreactivity |
| QVQLGDSGGGLVQAGGSLRLSCAASGSIFVGYAMGWYRQAPGKERELVAAISWSGDSTYYAVSVKGRFTMSRDNAKNTVYLQMNSLKPEDTAVYYCAVDYAENGPRREVEYDYWGQGTQVTVSS | low polyreactivity |
| QVQLGDSGGGLVQAGGSLRLSCAPSGSIFQRYAMGWYRLAPGKERELVAAISYNGGSTYYADSVKGRFTISRDNAKNTVYLQMNSLKPEDTAVYYCAARGYRKTRFDYWGQGTKVTVSS | high polyreactivity |
| QVQLGESGGGIVQAGGSLRLSCAASGIIFARYAMGWSRQAPGKERELVAAISRRGTSTYYADSVKGRFTISRDNAKNTVYLQMNSLKPEDTALYYCAARQLFYLPGPRVDAWGQGTQVTVSS | high polyreactivity |
| QVQLGESGGGIVQAGGSLRLSCAASGIIFYPYTMGWYRQAPGKERELVAAINSGGSTYYADSVKGRFTISRDNAKNTVYLQMNSLKPEDTAVYYCAAEEALDWYDDWIVSYDYWGQGTQVTVSS | low polyreactivity |
| QVQLGESGGGLFQAGGSLRLSCAASGRTFVTYAMVWYRQAPGKERELVAAISKRGSRTYYADSVKGRFTISRDNAKNTVYLQMNTLKPEDTAVYYCAVVYSIYTRGYDYWGQGTQVTVSS | high polyreactivity |
| QVQLGESGGGLLQAGGSLRLSCAASGRTISKNGMGWYRQAPGKERELVAAISGSGGTTYYADSVKGRFTISRDNAKNTVYLQMNSLKPEDTAVYYSADRYTVSRSGYWGLGTQVTVSS | high polyreactivity |
| QVQLGESGGGLVPARGSLRLSRAASGSTFTTNAMGWYRQAPGKEREFVAAITSSGGSTYYADSVKGRFTISRDNAKNTVYLQMNSLNPEDTAVYYCIADGDPSQKLFGRSYDYWGQGTQVTVSS | low polyreactivity |
| QVQLGESGGGLVQAGGRLRLSCAASGFTFNTYAMGWYRQAPGKVRALVATITSDGSTTYADSVKGRFTISRDNAKNTVNLQMNSLKPEDTAVYYFNARVWVHRYYYYFTHIITYDYWGQGTQVTVSS | low polyreactivity |
| QVQLGESGGGLVQAGGSLRLCCAASGRIFVRYTRGWYRQAPGKERELVAAIDQRGGSTYYADSVKGRFTISRDNANNTVSLQLNSLKPEDTAVYYCARVASRTRPGYGYWGQGTQVTVSS | low polyreactivity |
| QVQLGESGGGLVQAGGSLRLICAASGSTFWTNDMGWYRQAPGKERELVAPISQSAGDTYYADSVKARFTISRDNSKNTFYLQMISLKPEDTAVYYCAADLVFYPFTWDGYYYWGQGTQVTVSS | low polyreactivity |
